Reference: patent US20230357447A1 (JANUX THERAPEUTICS, published 2023)

Key:
[1] = target: T1, Anti-CD28 scFv (VH-linker 1-VL) (biotinylated (site not stated)); test: phage binding ELISA on captured biotinylated anti-CD28 scFv;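 further: crude clonal phage supernatants applied to the wells, bound phage read out with an HRP-conjugated anti-M13 antibody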
T1 construct: biotinylated and captured on neutravidin coated plates in the phage ELISA

[2] = target: T1, Anti-CD28 scFv (VH-linker 1-VL); test: phage binding ELISA on captured anti-CD28 scFv, wells pre-incubated with soluble CD28 (competitor);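 further: crude clonal phage supernatants added without washing, bound phage detected by HRP-conjugated anti-M13 antibody, control wells held blocking buffer alone instead of CD28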
Experimental: Clonal phage were harvested as crude supernatants and screened via standard enzyme linked immunosorbent assays (ELISAs). […] Prior to the addition of clonal phage, wells were incubated with blocking buffer and CD28 soluble protein or blocking buffer alone. Without washing or aspirating, clonal phage supernatants were then added to the wells and incubated for a short time. Wells were then washed followed by detection of bound phage using a horse radish peroxidase conjugated anti-M13 antibody.

T1 sequence (scFv, as listed by the source): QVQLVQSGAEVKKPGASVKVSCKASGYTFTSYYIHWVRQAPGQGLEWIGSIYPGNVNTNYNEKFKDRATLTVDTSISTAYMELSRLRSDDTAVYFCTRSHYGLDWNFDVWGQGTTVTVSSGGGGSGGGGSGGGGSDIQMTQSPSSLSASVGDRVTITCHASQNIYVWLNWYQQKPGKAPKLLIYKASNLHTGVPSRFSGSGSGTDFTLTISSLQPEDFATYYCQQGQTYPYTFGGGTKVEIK

Binder | CD28 scFv signal [1] | CD28 scFv signal in presence of CD28 [2]
MDWCPRILWHECFS [Phage-362] | 1.39 | 0.174
MDWCPSYLWPVCFN [Phage-365] | 1.18 | 0.131
LDWCPRHLWALCFN [Phage-349] | 1.78 | 0.24
MDWCPWFLWNECFN [Phage-350] | 1.77 | 0.279
MDWCPRHLWVHCFS [Phage-344] | 1.91 | 0.173
MDWCPRNMWNECFF [Phage-398] | 2.1 | 0.43
MDWCPRHLWHACFS [Phage-346] | 1.83 | 0.167
MDWCPRTLWDQCFF [Phage-339] | 1.99 | 0.314
MDWCPLFLWDQCFN [Phage-347] | 1.82 | 0.264
MDFCPRFLWHECFN [Phage-345] | 1.91 | 0.225
MDWCPKPLWHVCFA [Phage-337] | 2.02 | 0.152
MNWCPRALWHECFL [Phage-375] | 0.759 | 0.107
MDWCPLDMWVLCFA [Phage-401] | 1.84 | 0.169
MHWCPLHLWNECFA [Phage-378] | 0.575 | 0.083
MDWCPRAMWDYCFY [Phage-397] | 2.11 | 0.339
MDWCPMYLWDECFF [Phage-356] | 1.65 | 0.178
ILRCQMNLQDECLN [Phage-385] | 0.083 | 0.077
MDWCPRSMWDSCFN [Phage-399] | 2.02 | 0.142
IMWCPTSLWNRCVT [Phage-384] | 0.161 | 0.129

Binder | CD28 scFv signal [1] | CD28 scFv signal in presence of CD28 [2]
MSWCPIDLWSECFA [Phage-340] | 1.99 | 0.148
MDWCPRDLWNWCFN [Phage-336] | 2.03 | 0.39
MDWCPRFLWNECFY [Phage-338] | 2 | 0.287
IDWCPLHLWHECYH [Phage-353] | 1.69 | 0.182
MTWCPAYLWHECFN [Phage-370] | 0.985 | 0.139
LAGCQRDLATVCVI [Phage-383] | 0.229 | 0.116
MHWCPRHLWSECFN [Phage-361] | 1.43 | 0.478
MSWCPPYLWTVCYN [Phage-368] | 1.1 | 0.326
MDWCPSFLWYECFN [Phage-367] | 1.13 | 0.104
MDWCPRYMWSDCFF [Phage-394] | 2.28 | 0.377
MDWCPRNLWAECFS [Phage-379] | 0.538 | 0.08
MDWCPRSLWAQCFY [Phage-364] | 1.39 | 0.14
MHWCPLYLWDECFY [Phage-366] | 1.16 | 0.376
MDWCPIHLWYECFN [Phage-352] | 1.73 | 0.203
TDWCPRDMWYLCFN [Phage-396] | 2.11 | 0.301
MDWCPRYLWVDCFA [Phage-372] | 0.917 | 0.218
MDWCPRDLWTQCFF [Phage-343] | 1.93 | 0.119
MDWCPFDMWADCFF [Phage-391] | 2.53 | 0.215
MDWCPRLLWHECFN [Phage-357] | 1.6 | 0.109

Binder | CD28 scFv signal [1] | CD28 scFv signal in presence of CD28 [2]
MNWCPMHLWAECFN [Phage-363] | 1.39 | 0.14
MAWCPWYLWDECFN [Phage-348] | 1.81 | 0.267
MHWCPRDLWYECFA [Phage-369] | 0.995 | 0.108
MDWCPRNLWHECFA [Phage-342] | 1.97 | 0.175
MDWCPMNLWHECFA [Phage-351] | 1.74 | 0.16
MDWCPRPLWHECFA [Phage-359] | 1.44 | 0.138
MDWCPKDMWAECFN [Phage-395] | 2.11 | 0.457
MHWCPTYMWSECFA [Phage-400] | 1.84 | 0.161
ITWCPTSLWNRCLV [Phage-382] | 0.242 | 0.089
MAWCPRILWHQCFN [Phage-381] | 0.322 | 0.129
MDWCPRILWSDCFN [Phage-373] | 0.847 | 0.113
MAWCPLDLWDKCFY [Phage-374] | 0.77 | 0.141
NHWCPTTLWNRCVA [Phage-386] | 0.078 | 0.093
MDYCPSYLWHECFA [Phage-380] | 0.47 | 0.09
MDWCPRDMWFECFN [Phage-393] | 2.42 | 0.778
MDWCPMFLWHECFS [Phage-360] | 1.44 | 0.193
MDWCPFDLWLECFN [Phage-377] | 0.65 | 0.12
MDWCPRHLWTYCFH [Phage-376] | 0.757 | 0.207
